From patent US20210340233A1 (CRESCENDO BIOLOGICS, published 2021)
Substitutions are numbered along the chain they refer to. Blank lines part the entries; values can stand above or below the binder they belong to.

Legend:
[1] = target: T1, Human Serum Albumin (HSA) (human, UniProt P02768 25-609); experiment: BIAcore (Affinity), pH5; pH 5
T1 construct: Recombinant HSA from Sigma A9731 is named only for immunisation

Cyno Serum Albumin (CSA) [2] = target: T2, Cyno Serum Albumin (CSA) (cynomolgus, UniProt A2V9Z4 25-608); experiment: BIAcore (Affinity), pH5; pH 5
T2 construct: Bought protein; also called cynomolgus serum albumin

[3] = target: T1, Human Serum Albumin (HSA); experiment: BIAcore (Affinity), pH7; pH 7
Cyno Serum Albumin (CSA) [4] = target: T2, Cyno Serum Albumin (CSA); experiment: BIAcore (Affinity), pH7; pH 7
[5] = target: mouse serum albumin (MSA) (mouse, UniProt P07724 25-608); experiment: BLI (Octet RED384), albumin amine-coupled to AR2G biosensor
Chain of mouse serum albumin (MSA) (P07724 25-608 limits assumed): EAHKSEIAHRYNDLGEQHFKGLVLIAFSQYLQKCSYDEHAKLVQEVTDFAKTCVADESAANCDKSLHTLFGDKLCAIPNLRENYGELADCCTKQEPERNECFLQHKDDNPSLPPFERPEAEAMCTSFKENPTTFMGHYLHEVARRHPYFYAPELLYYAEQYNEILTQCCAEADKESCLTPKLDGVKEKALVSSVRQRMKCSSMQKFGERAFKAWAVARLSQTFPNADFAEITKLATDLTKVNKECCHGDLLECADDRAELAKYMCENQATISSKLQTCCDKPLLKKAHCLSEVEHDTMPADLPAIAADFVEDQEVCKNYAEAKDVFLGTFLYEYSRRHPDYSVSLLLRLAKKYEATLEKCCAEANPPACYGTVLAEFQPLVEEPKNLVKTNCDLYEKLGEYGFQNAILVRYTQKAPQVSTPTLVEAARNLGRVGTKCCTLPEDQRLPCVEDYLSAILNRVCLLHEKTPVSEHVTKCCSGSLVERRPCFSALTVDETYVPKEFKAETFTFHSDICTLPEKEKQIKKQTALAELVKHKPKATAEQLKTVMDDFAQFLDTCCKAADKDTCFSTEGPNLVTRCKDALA
Protocol: (§1) Binding studies with human, cyno and mouse serum albumin were carried out using the FortéBio OCTET RED384 instrument. Serum albumin (HSA, CSA, MSA) were coupled to AR2G biosensors by amine coupling using the amine reagent coupling kit (2nd generation, FortéBio). Briefly AR2G biosensors were rehydrated in water and then activated using EDC/sNHS reagents over 10 minutes. The activated biosensors were dipped into wells containing diluted serum albumin (HSA, CSA, MSA) to 10 ug/ml in 10 mM sodium acetate pH 5.0 for 10 minutes before free active sites were quenched using 1M Ethanolamine pH 8.5 over 10 minutes. These were then dipped into 10 mM glycine pH 2.5 to stabilise the surface. […] Anomalous or poorly fitting curves were excluded from the analysis.

[6] = target: T1, Human Serum Albumin (HSA); experiment: BLI (Octet RED384), albumin amine-coupled to AR2G biosensor, 1:1 model
Protocol: as §1

Cyno Serum Albumin (CSA) [7] = target: T2, Cyno Serum Albumin (CSA); experiment: as above
Protocol: as §1

Kd [1]: 13 nM
koff [1]: 0.00319 s⁻¹
kon [1]: 242000 M⁻¹ s⁻¹
Kd (Cyno Serum Albumin (CSA) [2]): 99 nM
koff (Cyno Serum Albumin (CSA) [2]): 0.0241 s⁻¹
kon (Cyno Serum Albumin (CSA) [2]): 244000 M⁻¹ s⁻¹
Kd [3]: 6 nM
koff [3]: 0.00162 s⁻¹
kon [3]: 255000 M⁻¹ s⁻¹
Kd (Cyno Serum Albumin (CSA) [4]): 67 nM
koff (Cyno Serum Albumin (CSA) [4]): 0.0168 s⁻¹
kon (Cyno Serum Albumin (CSA) [4]): 250000 M⁻¹ s⁻¹
B1: Variant of SEQ ID NO. 1 with E111→D and R115→Q (VHH)
VHH: EVQLVESGGGLVQPGRSLRLSCAASGFTFHHYAMHWVRQAPGKGLEWVSGISWNGNKITYADSVKGRFTISRDNAKNSLYLQMNSLRAEDTALYYCVRDSSLFIVGAPTFDHWGQGTLVTVSS
notes: Human single VH domain

Kd [1]: 12 nM
Kd (Cyno Serum Albumin (CSA) [2]): 96 nM
Kd [3]: 3 nM
Kd (Cyno Serum Albumin (CSA) [4]): 33 nM
B2: Humabody ® 1 (SEQ ID NO. 1) (VHH)
VHH: B1 VHH with D111E, Q115R
notes: Human single VH domain antibody from transgenic mice, not camelid; also called Humabody ® 1 VH; Humabody ® 1-ctag

Kd [6]: 4.83 nM
koff [6]: 0.00108 s⁻¹
kon [6]: 238000 M⁻¹ s⁻¹
Kd (Cyno Serum Albumin (CSA) [7]): 102 nM
koff (Cyno Serum Albumin (CSA) [7]): 0.0147 s⁻¹
kon (Cyno Serum Albumin (CSA) [7]): 144000 M⁻¹ s⁻¹
B3: trispecific molecule (SEQ ID NO. 17) including Humabody ® 1 (bispecific antibody)
chain: EVQLVESGGGVVQPGRSLRLSCAASGFSFSGYGMHWVRQAPGKGLEWVAYISYDGSNKYYADSVKGRFTISRDNSKNTLYLQMNSLRAEDTAVYYCAKDPAWGLRLGESSSYDFDIWGQGTMVTVSSGGGGSGGGGSGGGGSGGGGSGGGGSGGGGSEVQLVESGGGLVQPGGSLRLSCAASGFTLSNYWMNWVRQAPGKGLEWVANINQDGSERYYVDSVKGRFTISRDNAKNSLYLQMNSLRAEDTAVYYCARGGEGYGVDHYGLDVSGQGTTVTVSSGGGGSGGGGSGGGGSGGGGSGGGGSGGGGSEVQLVESGGGLVQPGRSLRLSCAASGFTFHHYAMHWVRQAPGKGLEWVSGISWNGNKITYADSVKGRFTISRDNAKNSLYLQMNSLRAEDTALYYCVRDSSLFIVGAPTFEHWGRGTLVTVSSGGGGSGGGGSGGGGSGGGGS
notes: 1 at the C-terminal end; also called trivalent compound; trivalent construct
binding result [5]: no binding (tested: top concentration 1500 nM)
